One test deals with T1, mouse GPR49 (mouse, UniProt Q9Z1P4 22-907, limits assumed).
T1 construct: Expressed transiently in 293T cells; the cell lysate was analysed by Western blotting; also called mouse (M) GPR49
T1 sequence (looked up): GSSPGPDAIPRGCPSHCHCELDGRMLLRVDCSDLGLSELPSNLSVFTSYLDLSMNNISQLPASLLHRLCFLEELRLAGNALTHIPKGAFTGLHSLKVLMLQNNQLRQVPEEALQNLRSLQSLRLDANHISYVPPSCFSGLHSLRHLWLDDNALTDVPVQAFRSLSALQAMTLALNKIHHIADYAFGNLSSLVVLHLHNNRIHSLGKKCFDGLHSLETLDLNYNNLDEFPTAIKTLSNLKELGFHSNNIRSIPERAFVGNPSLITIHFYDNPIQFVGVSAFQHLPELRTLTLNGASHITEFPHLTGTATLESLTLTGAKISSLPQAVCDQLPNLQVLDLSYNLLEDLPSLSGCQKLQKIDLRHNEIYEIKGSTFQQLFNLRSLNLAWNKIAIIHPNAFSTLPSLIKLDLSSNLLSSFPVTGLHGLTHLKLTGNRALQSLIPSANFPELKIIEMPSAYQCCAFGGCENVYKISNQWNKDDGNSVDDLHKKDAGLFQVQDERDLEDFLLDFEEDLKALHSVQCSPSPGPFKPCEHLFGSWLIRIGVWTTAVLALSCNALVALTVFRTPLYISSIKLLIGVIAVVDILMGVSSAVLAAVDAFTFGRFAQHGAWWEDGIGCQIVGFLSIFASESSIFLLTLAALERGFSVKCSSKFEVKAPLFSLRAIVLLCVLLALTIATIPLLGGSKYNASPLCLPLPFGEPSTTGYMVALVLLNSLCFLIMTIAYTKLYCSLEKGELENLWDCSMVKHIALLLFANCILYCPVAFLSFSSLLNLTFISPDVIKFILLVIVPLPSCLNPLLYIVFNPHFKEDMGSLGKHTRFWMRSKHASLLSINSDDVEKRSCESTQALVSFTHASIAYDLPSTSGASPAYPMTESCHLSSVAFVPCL
As to the kind of experiment: Western blotting.

Test [1] deals with T2, human GPR49 protein (human, UniProt O75473 22-907).
T2 construct: also called LGR5; GPR49 molecule
T2 sequence: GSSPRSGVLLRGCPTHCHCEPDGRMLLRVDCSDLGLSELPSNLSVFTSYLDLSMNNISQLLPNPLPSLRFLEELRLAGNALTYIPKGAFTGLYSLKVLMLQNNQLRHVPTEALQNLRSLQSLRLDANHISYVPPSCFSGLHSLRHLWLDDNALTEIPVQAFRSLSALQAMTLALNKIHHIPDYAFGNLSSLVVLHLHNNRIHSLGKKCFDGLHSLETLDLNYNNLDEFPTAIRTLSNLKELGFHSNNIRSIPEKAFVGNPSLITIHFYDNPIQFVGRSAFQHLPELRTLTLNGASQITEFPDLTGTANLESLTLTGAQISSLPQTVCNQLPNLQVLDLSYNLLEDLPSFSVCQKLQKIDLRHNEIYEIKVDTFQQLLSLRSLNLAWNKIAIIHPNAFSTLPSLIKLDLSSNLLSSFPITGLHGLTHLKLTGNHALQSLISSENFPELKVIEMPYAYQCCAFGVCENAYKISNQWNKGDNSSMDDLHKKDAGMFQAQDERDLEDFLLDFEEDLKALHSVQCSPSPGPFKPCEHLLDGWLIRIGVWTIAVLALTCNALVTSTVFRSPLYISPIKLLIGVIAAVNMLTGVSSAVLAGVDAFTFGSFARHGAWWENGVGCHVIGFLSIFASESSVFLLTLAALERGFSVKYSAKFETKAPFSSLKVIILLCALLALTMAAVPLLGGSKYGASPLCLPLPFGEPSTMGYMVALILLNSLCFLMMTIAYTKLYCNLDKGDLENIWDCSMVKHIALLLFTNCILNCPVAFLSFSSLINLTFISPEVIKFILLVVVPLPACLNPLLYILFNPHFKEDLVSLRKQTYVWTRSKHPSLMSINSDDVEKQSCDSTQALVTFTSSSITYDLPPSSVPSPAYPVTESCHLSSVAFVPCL
As to the kind of experiment: Western blotting of LoVo cell lysate.

Test [2] has as its target T3, HA-GPR49 (full-length human GPR49 with an HA-tag inserted at the N-terminus) (human, UniProt O75473 22-907).
T3 construct: Expressed in DG44 cells (line 2B10) and, inducibly with doxycycline, in 293FlpIn T-Rex cells (lines B2, B4); On whole cells in flow cytometry and cytotoxicity assays; as cell lysate in Western blotting and immunoprecipitation; also called human GPR49/DG44 cells (2B10); HA-GPR49-expressing DG44 cell line 2B10; not shown: HA-tag inserted at the N-terminus of GPR49
T3 sequence: T2 sequence
As to the kind of experiment: flow cytometry, hybridoma supernatant on 2B10 cells against parental DG44. The method, then:
The binding to the human GPR49/DG44 cells (2B 10) was evaluated by flow cytometry using the obtained hybridomas. The cell lines expressing human GPR49 suspended in FACS buffer (2% FBS/PBS/0.05% NaN₃) were diluted to 1×10⁶ cells/mL with FACS buffer, and then aliquoted at 50 μL/well into a Falcon 353910 round-bottom 96-well plate. Hybridoma culture supernatant diluted to a suitable concentration was added to the wells containing the cells and reacted for 60 minutes on ice. Then, the cells were washed once with FACS buffer. Goat F(ab′)₂ fragment anti-mouse IgG(H+ L)-FITC (Beckman Coulter) was added to the wells containing the cells as a secondary antibody, and reacted for 30 minutes on ice. After reaction, the supernatant was removed by centrifugation, and then the cells suspended in 100 μL of FACS buffer were subjected to flow cytometry. A FACS Calibur (Becton Dickinson) was used for flow cytometry. The viable cell population was gated with a forward scatter-side scatter dot blot, an FL1 histogram was made of the cells contained in the population, and binding activity thereof was evaluated.
When the hybridoma supernatants were reacted with 2B 10 in which GPR49 is induced and expressed in DG44 cells and with the parental cell line DG44 respectively, hybridomas that specifically reacted with GPR49-expressing cells were obtained. The hybridomas from these wells were made into single clones by the limiting dilution method. The isotype of each antibody was analyzed using an IsoStrip™ mouse monoclonal antibody isotyping kit (Roche Diagnostics). As a result, 2J18-1N and 2J18-3 were IgM, and 2L7-8, 2L9-3, 2L10-19, 2L13-3, 2L15-12, 2L16-15, 2L18-15, 2L33-6, 2L34-5, 2L36-12, 2T4E-6, 2T9E1#14, 2T15E-2, 2T42E-4, 2T54-2, 2T65-3, 2T37-16, 2U1E-1, 2U2E-2, and 2U4E-11 were IgG1. Culturing of the hybridomas made into single clones was scaled up, and then the antibodies were purified from the culture supernatant using a protein G column in accordance with the manual. The IgM antibodies were purified using a protein L column in accordance with the manual. The purified antibodies were quantified by DC Protein Assay or such.

The target of test [3] is T2, human GPR49 protein. As to the kind of experiment: flow cytometry, 10 ug/mL antibody on OVSAHO, Alexander and NUGC-4 cells. The protocol: The reactivity of 2T15E-2 antibody to human cancer cell lines were analyzed by flow cytometry. Human cancer cell lines suspended in a FACS buffer (2% FBS/PBS/0.05% NaN₃) were diluted to 1×10⁶ cells/mL with the FACS buffer, and the solutions were then dispensed into a Falcon 353910 round-bottom 96-well plate at 50 μL/well. 2T15E-2 antibody diluted to a concentration of 10 μg/mL was added, and this was reacted for 60 minutes on ice. Next, the cells were washed once with the FACS buffer. After adding Goat F(ab′)₂ fragment anti-mouse IgG (Fcγ)-FITC (Beckman Coulter) as a secondary antibody to the wells containing the cells, this was reacted for 30 minutes on ice. After the reaction, the supernatant was removed by centrifugation, and then the cells were suspended in 100 μL of FACS buffer containing propidium iodide (PI) and then subjected to flow cytometry. A FACS Calibur (Becton Dickinson) was used for the flow cytometry. The viable cell population was gated with a forward scatter-side scatter dot blot, an FL1 histogram was made of the cells contained in the population, and binding activity thereof was evaluated.
The peaks indicated with a solid line indicate the reactivity with cancer cell lines, and the shaded regions represent the peaks obtained when the reactions are carried out without antibodies. […]

In test [4] the target is T3, HA-GPR49 (full-length human GPR49 with …). As to the kind of experiment: immunoprecipitation from 2B10 cell lysate, Western blot detection. The method, then: To confirm the presence of the 40-kDa and 60-kDa protein bands detected in Western blotting, immunoprecipitation experiments were carried out using GPR49 monoclonal antibodies. Cell lysate prepared by solubilizing HA-GPR49-expressing DG44 cell line 2B10 in NP40 lysis buffer (0.5% NP40, 50 mM Tris-HCl (pH7.5), 150 mM NaCl, protease inhibitor complete mini (Roche)) was used as the sample for immunoprecipitation. The amount of protein included in the cell lysate was quantified by DC Protein Assay using BSA as a standard. A solution containing 2 μg of antibody was added to 500 μL of cell lysate containing 100 μg of protein, and this was reacted at 4° C. for one hour. Additionally, 20 μL of Protein A/G Plus agarose (Santa Cruz) was added and this was reacted overnight. Agarose beads were centrifugated at 1,000×g for one minute, washed twice with 1 mL of PBS, and then antigens bound to the antibodies were eluted by adding 50 μL of 2×SDS-sample buffer and warming at 60° C. for 30 minutes. After centrifuging at 1,000×g for one minutes, 15 μL of the supernatant obtained was subjected to SDS-PAGE. […] As is seen in the lanes for the samples immunoprecipitated using 2L13-3 and 2L36-12, a 40-kDa band and a 60-kDa band in addition to the 100-kDa band could surely be detected using 2U1E-1 and 2U2E-2, respectively. […]

B1: anti-GPR49 monoclonal antibody 2U2E-2 (antibody, mouse IgG1, V domains shown)
VH: EVKLVESGGDLVKPGGSLKLSCAASGFIFSTYAMSWVRQIPEKRLEWVASISPDGNTFYPDSLKGRFTISRDNVRNILYLQMSSLRSEDTAMYYCAVTGTFAYWGQGTLVTVSG
VL: DVLMTQTPLSLPVSLGDQASISCRSSQNILHSDGNTYLEWFLQKPGQSPKLLIFKISNRFPGVPDRFSGSGSGTDFTLKISRVEAEDLGVYYCFQSSHVPYTFGGGTKLEIK
notes: Mouse IgG1 from hybridoma; light chain amplified with a kappa primer
Consider B1, for which the binding result (with mouse GPR49; with human GPR49 protein [1]; in test [2]) was “binds” each time.

B2: anti-GPR49 monoclonal antibody 2J18-1N (antibody, mouse IgM, V domains shown)
VH: EVQLQQSGPELVKPGDSVKMSCKASGYTFTDYYMDWVKQSHGKSLEWIGYIYPNNGGTSYNQKFKGKATLTVDKSSSTAYMELHSLTSEDSAVYYCARPYYSNSFAYWGQGTLVTVSA
VL: QIVLTQSPAIMSASPGEKVTMTCRASSSVSSSYLHWYQQKPGSSPKLWIYSTSNLASGVPARFSGSGSGTSYSLTISSVEAEDAATYYCQQYDSSPFTFGTGTKLEIK
notes: Mouse IgM from hybridoma; light chain amplified with a kappa primer
Turning to B2, in test [2], the binding result is listed as “binds”.

B3: anti-GPR49 monoclonal antibody 2U1E-1 (antibody, mouse IgG1, V domains shown)
VH: QVQLQQPGAELVEPGASVKLSCKASGYTFTNYYMYWVKQRPGQGLEWIGGINPNNGGTNFNEKFKSKATLTVDKSSSTAYMQLSSLTSEDSAVYYCTGIYYRYNWHFGVWGAGTTVTVSS
VL: DVLMTQTPLSLPVSLGDQASISCRSSQTIVHSNGNTYLEWYLQKPGQSPKLLIYKVSNRFSGVPDRFSGSGSGTDFTLKIYRVEAEDLGIYYCFQGSHVPWTFGGGTKLEIK
notes: as for B1
Take B3: the binding result (in the test with mouse GPR49; in the test with human GPR49 protein [1]; in test [2]) was “binds” in each case.

B4: anti-GPR49 monoclonal antibody 2T15E-2 (antibody, mouse IgG1, V domains shown)
VH: EVQLVESGGGLVKPGGSLKISCAASGFTSSNYAMSWVRQTPEKRLEWVATISSGGGYTYYPDSEKGRFAISRDNAKNTLYLQMSGLRSEDTAMYYCATQLYYRSHYYSMDYWGQGSSVTVSS
VL: QIVLTQSPAIMSASPGEKVTMTCSASSSISYMHWYQQKSGTSPKRWIYDTSKLASGVPARFSGSGSGTSYSLTISSMEAEDAATYYCQQWHSKPATFGAGTKLELK
notes: as for B1
On to B4, for which the binding result (with human GPR49 protein [3]; in test [2]) was “binds” in each case.

B5: anti-GPR49 monoclonal antibody 2L13-3 (antibody, mouse IgG1, V domains shown)
VH: QVQLQQSGAELVRPGTSVKMSCKAAGYTFTNSWIGWVKQRPGHGLEWIGDIYPGGDYTNYNEKFKGKATLTADTSSSTAYMQLSSLTSEDAAIYYCTRGDGYFDYWGQGTTLTVSS
VL: DIVMTQSHKFMSTSVGDRVSITCKASQDVSIDVAWYQQRPGQSPKLLIYSASYRYTGVPDRFTGSGSGTDFTFTVSSVQAEDLAVYYCQQHYSTPPTFGGGTKLEIK
notes: as for B1
With B5, the binding result in test [4] is on record as “binds”.

B6: anti-GPR49 monoclonal antibody 2L36-12 (antibody, mouse IgG1, V domains shown)
VH: QVQLQQSGAELVRPGTSVKVSCKASGYDFTNYLIEWVNQRPGQGLEWIGVINPGSGGTNYNEKFKGKATLTADKSSSTAYMQLSSLTSDDSAVYLCARYSPYGNYFDYWGQGTTLTVSS
VL: DIVMTQSHKFMSTSVGDRVSITCRASQDVGTAVAWYQQKPGQSPKLLIYWASTRHTGVPDRFTGSGSGTDFTLTINNVQSEDLADYFCQQYSSYPPTFGGGTKLEIK
notes: as for B1
Take B6: the binding result in test [2] is given as “binds”.

For the origin of these results see patent US20110176995A1 (Chugai, published 2011).
